According to publication PMC7332683, “A ferredoxin-dependent dihydropyrimidine dehydrogenase in Clostridium chromiireducens” (Bioscience Reports, 2020):

T1: PydAc (Clostridium chromiireducens, UniProt A0A399ILH0)
T1 construct: gene preA; FMN and two Fdx domains, no FAD/NADPH domain; strain C1 (DSM12136) is given only for the growth test
T1 sequence (A0A399ILH0 1-499): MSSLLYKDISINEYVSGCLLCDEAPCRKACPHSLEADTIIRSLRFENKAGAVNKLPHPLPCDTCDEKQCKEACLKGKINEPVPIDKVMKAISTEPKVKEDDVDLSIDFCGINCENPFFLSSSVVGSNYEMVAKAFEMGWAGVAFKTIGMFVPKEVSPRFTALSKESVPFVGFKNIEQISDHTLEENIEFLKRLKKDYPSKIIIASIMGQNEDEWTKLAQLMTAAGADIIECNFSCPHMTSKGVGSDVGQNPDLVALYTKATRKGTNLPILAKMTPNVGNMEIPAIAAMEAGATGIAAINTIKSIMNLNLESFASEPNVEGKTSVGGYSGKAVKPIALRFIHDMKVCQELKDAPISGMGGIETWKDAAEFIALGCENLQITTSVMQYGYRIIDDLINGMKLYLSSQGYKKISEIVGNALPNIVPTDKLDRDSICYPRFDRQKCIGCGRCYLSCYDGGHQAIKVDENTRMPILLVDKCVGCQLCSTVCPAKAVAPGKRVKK

B1: PydAc (Clostridium chromiireducens) (protein)
chain: T1 sequence (A0A399ILH0 1-499)
notes: FMN and two Fdx domains, no FAD/NADPH domain; strain C1 (DSM12136) is given only for the growth test

What was measured:
PydAc = target: T1, PydAc; assay: spectrophotometric assay of reduced methyl viologen oxidation at […] nm, anaerobic; activity with and without added FMN; type: biochemical; settings: 15 uM FMN added, uracil, pH 7.5, predominantly apo recombinant enzyme
purified protein = substrate: O=c1cc[nH]c(=O)[nH]1; assay: purified protein; type: biochemical, Clostridium chromiireducens; settings: 0.1 mM reduced methyl viologen (MV+), 15 uM FMN, 0.1 M KCl, 20 mM Tris-HCl, pH 7.5, 0.2 uM reconstituted PydAc

Row | Molecule | spectrophotometric assay of reduced methyl viologen oxidation at 600 nm, anaerob (PydAc) | Km (purified protein) | kcat (purified protein)
1 | Cc1cc2nc3c(=O)[nH]c(=O)nc-3n(C[C@H](O)[C@H](O)[C@H](O)COP(=O)(O)O)c2cc1C [FMN] | omission of FMN from the assay mixture led to a large decrease in activity | – | –
2 | B1 | – | 130 ± 30 µM | 0.92 ± 0.04 s⁻¹
